Patent US20210214435A1 (MorphoSys, published 2021)

B1: Reference Control Antibody RefFab #1 (humanized GPVI antibody of WO2011073954A2, SANOFI) (Fab, V domains shown)
VH: EVQLLESGPGLVAPSGSLSITCTVSGFSLTGYGVNWVRQPPGKGLEWLGMIWGDGSTDYQSTLKSRLSISKDNSKSQVFLKMNSLRTDDTARYYCARDLPMDYWGLGTSVTVSS
VL: DIQMTQSPSSLSASVGGRVTITCKASQDINKYIAWYQHKPGKGPSLLIHYTSTLQPGVPSRFSGSGSGRDYSFSISNLQPEDIATYYCLQYANLLTFGGGTKLEIKR
notes: Cloned into mammalian Fab expression vectors; a glycine-serine linker (G4S)2 was added to the C-terminus of the Fab heavy chain
B2: Fab #2 comprising a modified heavy chain constant region (Fab, V domains shown)
VH: QVQLVESGGGLVKPGGSLRLSCAASGFSFSDHYMSWIRQAPGKGLEWVSSVGSEGKFIDYAASVKGRFTISRDNAKNSLYLQMNSLRAEDTAVYYCARHYREFRWHYYYFDYWGQGTLVTVSS
VL: QSVLTQPPSVSGAPGQRVTISCTGSSSNIGAGYDVHWYQQLPGTAPKLLIYGNSNRPSGVPDRFSGSKSGTSASLAITGLQAEDEADYYCQSHDLGAHVWVFGGGTKLTVLG
notes: Human Fab from the Ylanthia library; produced in HKB11 cells; also called Fab #2 mod; HC
B3: Fab #3 comprising a modified heavy chain constant region (Fab, V domains shown)
VH: QVQLVESGGGLVKPGGSLRLSCAASGFSFGDYYVSWIRQAPGKGLEWVSAIGGSGSAVQYAESVKGRFTISRDNAKNSLYLQMNSLRAEDTAVYYCARHYREFRWHYYYFDYWGQGTLVTVSS
VL: B2 VL
notes: Human Fab from the Ylanthia library; produced in HKB11 cells; also called Fab #3 mod; HC
B4: Fab #4 comprising a modified heavy chain constant region (Fab, V domains shown)
VH: QVQLVQSGAEVKKPGASVKVSCKASGGAFTSSYMHWVRQAPGQGLEWMGIIEPTGASTLYAQRFQGRVTMTRDTSTSTVYMELSSLRSEDTAVYYCARTGIALPLGFDLWGQGTLVTVSS
VL: QSVLTQPPSVSAAPGQKVTISCSGSSSNIGNNYVSWYQQLPGTAPKLLIYDNNKRPSGIPDRFSGSKSGTSATLGITGLQTEDEADYYCAAWSTRFRWVFGGGTKLTVLG
notes: Human Fab from the Ylanthia library; produced in HKB11 cells; also called Fab #4 mod; HC
B5: Fab #1 comprising a modified heavy chain constant region (Fab, V domains shown)
VH: QVQLVQSGAEVKKPGASVKVSCKASGYTFTSHYMHWVRQAPGQGLEWMGLIEPSEGETEYAQRFQGRVTMTRDTSTSTVYMELSSLRSEDTAVYYCARDSSRSYPLGFDIWGQGTLVTVSS
VL: QSVLTQPPSVSAAPGQKVTISCSGSSSNIGNNYVSWYQQLPGTAPKLLIYDNNKRPSGIPDRFSGSKSGTSATLGITGLQTEDEADYYCAAWDFRSSRWVFGGGTKLTVLG
notes: Human Fab from the Ylanthia library; produced in HKB11 cells; also called Fab #1 mod; HC

Legend:
[1] = target: T1, cynomolgus monkey GPVI on the cell surface of cynomolgus monkey platelets (cynomolgus monkey); assay: FACS on washed cynomolgus platelets from PRP (one donor), PE-conjugated detection antibody, median fluorescence
T1 construct: whole, on cells; also called GPVI on cynomolgus monkey platelets
Protocol: Platelet-rich plasma (PRP) from up to 4 donors was prepared by centrifugation of citrated whole blood for 15 min at 150×g without brake. The resulting supernatant was transferred as PRP into a new sample tube without disturbing the underlying leukocyte-rich interphase. After careful washing in Tyrode's buffer supplemented with Prostacyclin 1₂ (PGI2; Epoprostenol-Rotexmedica), platelets were resuspended in Tyrode's/PGI2 and transferred to 96 well V-bottom microtiter plates. Platelets were spiked with Fab (comprising a modified heavy chain constant region) diluted to final concentrations between 0.015-30 μg/ml in Tyrode's/PGI2 and incubated for 30 min at RT. Platelets were carefully washed to remove non-bound Fab and then incubated for 30 min at RT with a Phycoerythrine (PE)-conjugated detection antibody (Jackson ImmunoResearch). After incubation for 30 min at RT, platelets were analyzed by flow cytometry in a FACS Canto II (Becton Dickinson). In the case of Fab directly conjugated with PE (FIG. 1D), incubation with detection antibody was omitted. Data was evaluated using FACS Diva software (Becton Dickinson). EC50 values were calculated using Prism 5 software (GraphPad).

[2] = target: T2, cynomolgus monkey GPVI (full-length) expressed on stably transfected CHO cells (cynomolgus monkey, UniProt Q9HCN6 21-339 (human entry)); assay: Cell ELISA (MSD) on CHO cells expressing GPVI
T2 chain: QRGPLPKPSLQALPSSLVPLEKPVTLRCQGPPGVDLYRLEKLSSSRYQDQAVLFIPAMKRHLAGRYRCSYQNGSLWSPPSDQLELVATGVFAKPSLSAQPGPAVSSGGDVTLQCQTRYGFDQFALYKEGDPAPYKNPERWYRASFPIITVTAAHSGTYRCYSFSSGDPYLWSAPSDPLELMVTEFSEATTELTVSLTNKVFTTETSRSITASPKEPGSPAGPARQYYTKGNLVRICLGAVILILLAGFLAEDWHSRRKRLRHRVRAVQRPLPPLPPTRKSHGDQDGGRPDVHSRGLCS
Protocol: (§1) CHO cells stably transfected with either human, cynomolgus monkey, or mouse GPVI (SEQ ID NO: 1, SEQ ID NO: 2, SEQ ID NO: 3, respectively and as described in Example 1) were seeded at a density of 5000 cells/well in growth medium on a 96 well high bind plate (Meso Scale Discovery) and cultivated overnight at 37° C. and 5% CO2. Cells were blocked with PBS supplied with 5% BSA and then incubated with Fab (comprising a modified heavy chain constant region) serially diluted to concentrations between 300 nM to 5 pM in PBS supplied with 0.5% BSA. After washing, bound Fab was detected using ECL-conjugated detection antibody directed against human F(ab′)2 fragment (Jackson Immuno Research). MSD read buffer (Meso Scale Discovery) was added to cells prior to readout in a Sector Imager6000 (Meso Scale Discovery). EC50 values were calculated using Prism 5 software (GraphPad).

[3] = target: T3, human GPVI (full-length) expressed on stably transfected CHO cells (human, UniProt Q9HCN6 21-339); assay: Cell ELISA (MSD) on CHO cells expressing GPVI
T3 chain: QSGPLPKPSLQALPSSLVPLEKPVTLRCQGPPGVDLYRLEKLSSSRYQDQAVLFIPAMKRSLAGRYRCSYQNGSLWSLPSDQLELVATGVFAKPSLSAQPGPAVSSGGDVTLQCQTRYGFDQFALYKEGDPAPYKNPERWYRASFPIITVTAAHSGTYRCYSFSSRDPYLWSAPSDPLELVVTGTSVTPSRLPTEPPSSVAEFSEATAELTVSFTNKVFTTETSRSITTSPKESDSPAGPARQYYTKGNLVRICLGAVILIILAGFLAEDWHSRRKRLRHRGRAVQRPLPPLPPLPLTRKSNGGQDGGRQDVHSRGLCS
Protocol: as §1

[4] = target: T4, cynomolgus monkey GPVI extracellular domain fused at its C-terminus to human IgG1 Fc (GPVI-Fc) (cynomolgus monkey; human); assay: Competition ELISA (MSD): cynomolgus GPVI-Fc preincubated with Fab, then on coated CRP-XL (competitor)
T4 construct: also called cyGPVI-2; cyGPVI
Protocol: (§2) 1 or 10 μg/ml of recombinant GPVI collagen substrate (crosslinked collagen-related peptide (CRP-XL (Anaspec, Inc.), rat-tail collagen (Enzo Life Sciences) or VitroCol (Advanced BioMatrix, Inc.) was coated on a MSD-plate over night at 4° C., washed with PBST, blocked for 1 h at RT with PBS supplemented with 0.05% Tween-20 and 3% skim milk powder, and subsequently washed again with PBST. Purified recombinant GPVI antigens (human, cynomolgus monkey or mouse GPVI as prepared in Example 1) diluted in PBS and varying concentrations of Fab (comprising a modified heavy chain constant region) diluted in PBS (final concentration range 200-0.3 μg/ml) were incubated in a polypropylene plate for 30 min at RT. Fab/GPVI-Fc mixture was added to coated collagen substrate for 1 h at RT. After washing with PBST, bound GPVI form different species was detected using an ECL-conjugated detection antibody directed against human Fc (Jackson Immuno Research) for 1 h at RT. MSD read buffer (Meso Scale Discovery) was added prior to readout in a Sector Imager6000 (Meso Scale Discovery).

[5] = target: T5, mouse GPVI (full-length) expressed on stably transfected CHO cells (mouse, UniProt P0C191 22-313); assay: Cell ELISA (MSD) on CHO cells expressing GPVI
T5 sequence: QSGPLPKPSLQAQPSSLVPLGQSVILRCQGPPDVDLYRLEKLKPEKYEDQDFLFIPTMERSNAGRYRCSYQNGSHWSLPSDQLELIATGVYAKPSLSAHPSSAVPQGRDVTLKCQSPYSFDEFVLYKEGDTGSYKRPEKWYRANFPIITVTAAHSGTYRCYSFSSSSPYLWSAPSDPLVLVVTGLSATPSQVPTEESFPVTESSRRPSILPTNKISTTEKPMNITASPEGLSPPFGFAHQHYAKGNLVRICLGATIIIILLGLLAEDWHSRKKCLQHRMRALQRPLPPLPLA
Protocol: as §1

[6] = target: T6, mouse GPVI extracellular domain fused at its C-terminus to human IgG1 Fc (GPVI-Fc) (mouse; human); assay: Competition ELISA (MSD): mouse GPVI-Fc preincubated with Fab, then on coated rat-tail collagen (competitor)
T6 construct: also called mGPVI; mouse GPVI-Fc
Protocol: as §2

| Binder | EC50 (read off the curve) [1] [µg/mL] | EC50 [2] [nM] | EC50 [3] [nM] | IC50 [4] [nM] | Max. inhibition at 200 nM Fab [%] [4] [%] | EC50 [5] [nM] | IC50 [6] [nM] | Max. inhibition at 200 nM Fab [%] [6] [%] |
| --- | --- | --- | --- | --- | --- | --- | --- | --- |
| B1 | ~0.5 | 2.09 | 2.8 | 9.5 | 100 | – | – | – |
| B2 | ~0.6 | 1.06 | 0.78 | 7.9 | 100 | 8.28 | 5.7 | 99 |
| B3 | ~0.6 | 1.06 | 0.77 | 9.1 | 100 | 3.74 | 5.3 | 99 |
| B4 | ~0.7 | 0.8 | 0.78 | 11.3 | 51 | 0.93 | – | 87 |
| B5 | ~0.4 | 0.74 | 0.89 | 11.5 | 59 | – | 17.2 | 89 |
